Article PMC12248463, “Humanized scFv Molecule Specific to an Extracellular Epitope of P2X4R as Therapy for Chronic Pain Management” (Cells, 2025)

B1: humanized P2X4R scFv HC1-LC1 (scFv, V domains shown)
VH: EVKLVESGGGLVQPGGSLRLSCATSGFTFTDYYMSWVRQPPGKALEWLGFIRNKANGYTTEYSASVKGRFTISRDNSQSILYLQMNTLRAEDSATYYCARWEGDLLYAMDYWGQGTSVTVSS
VL: DIQMTQTTSSLSASLGDRVTISCSASQGISNYLNWYQQKPDGTVKLLIYYTSSLHSGVPSRFSGSGSGTDYSLTISNLEQEDIATYYCQQYSKLPWTFGGGTKLEIK
notes: humanized VH hscFv95.HC1 (CDRs of murine mscFv95 grafted on a human framework); 15-amino-acid linker, printed as (G4S)3; humanized VL hscFv95.LC1 (CDRs of murine mscFv95 grafted on a human framework); Cloned NcoI/NotI into a pET32a-His vector; also called hscFv95.HC1 + hscFv95.LC1; source: E. coli Rosetta-gami (DE3), purified (HisTrap, SEC)
B2: humanized P2X4R scFv HC2-LC1 (scFv, V domains shown)
VH: QVQLQESGPGLVKPSQTLSLTCTTSGFTFTDYYMSWVRQAPGKGLEWIGFIRNKANGYTTEYSASVKGRFTISRDNSKNQFSLRLSSVTAADTAVYYCARWEGDLLYAMDYWGQGTTVTVSS
VL: B1 VL
notes: humanized VH hscFv95.HC2 (CDRs of murine mscFv95 grafted on a human framework); 15-amino-acid linker, printed as (G4S)3; humanized VL hscFv95.LC1, as the VL of m1; Cloned NcoI/NotI into a pET32a-His vector; also called hscFv95.HC2 + hscFv95.LC1; source: E. coli Rosetta-gami (DE3), purified (HisTrap, SEC)
B3: humanized P2X4R scFv HC3-LC3 (lead) (scFv, V domains shown)
VH: EVQLVESGGGLVQPGGSLRLSCATSGFTFTDYYMHWVRQAPGKGLEWVGFIRNKANGYTTEYSASVKGRFTISRDNSKNTLYLQMNSLRAEDTAVYYCARWEGDLLYAMDYWGQGTLVTVSS
VL: DIQMTQSPSSLSASVGDRVTITCRASQGISNYLNWYQQKPGKAPKLLIYYTSSLHSGVPSRFSGSGSGTDFTLTISSLQPEDFAYYYCQQYSKLPWTFGGGTKVEIK
notes: humanized VH hscFv95.HC3 (CDRs of murine mscFv95 grafted on a human framework); 15-amino-acid linker, printed as (G4S)3; humanized VL hscFv95.LC3, as the VL of m3; Cloned NcoI/NotI into a pET32a-His vector; Captured on HIS1K penta-His sensors in the Octet assay; also called hscFv HC3-LC3; P2X4R hscFv; source: E. coli Rosetta-gami (DE3), purified (HisTrap, SEC)
B4: humanized P2X4R scFv HC3-LC1 (scFv, V domains shown)
VH: B3 VH
VL: B1 VL
notes: humanized VH hscFv95.HC3, as the VH of m4; 15-amino-acid linker, printed as (G4S)3; humanized VL hscFv95.LC1, as the VL of m1; Cloned NcoI/NotI into a pET32a-His vector; also called hscFv95.HC3 + hscFv95.LC1; source: E. coli Rosetta-gami (DE3), purified (HisTrap, SEC)
B5: humanized P2X4R scFv HC2-LC3 (scFv, V domains shown)
VH: B2 VH
VL: B3 VL
notes: humanized VH hscFv95.HC2, as the VH of m2; 15-amino-acid linker, printed as (G4S)3; humanized VL hscFv95.LC3 (CDRs of murine mscFv95 grafted on a human framework); Cloned NcoI/NotI into a pET32a-His vector; also called hscFv95.HC2 + hscFv95.LC3; source: E. coli Rosetta-gami (DE3), purified (HisTrap, SEC)

Target: T1, human P2X4R peptide (extracellular 13-amino-acid peptide fragment of human P2X4R) (Homo sapiens, UniProt Q99571, biotinylated (position not given) where immobilised as ligand)
T1 construct: P2X purinoceptor 4, human; extracellular 13-amino-acid peptide fragment, the counterpart of rat residues 301-313 (11/13 residues identical to the rat peptide); also called human P2X4 peptide; source: synthetic peptide (GenScript)
T1 chain: RDLAGNEQRTLIK
Assay: ELISA; indirect ELISA, purified hscFvs on human P2X4 peptide, triplicate wells (Figure 3B)
Settings: both partners purified

Going from B1 to B2, the Kd falls from 24 nM to 12 nM (2-fold).

First: B3
Second: B4
The Kd of the first is 2-fold lower: 2.3 nM for the first, 4.7 nM for the second.

B5 was tested, and the Kd was 29 nM.

Target: T1, human P2X4R peptide (extracellular …)
Assay: BLI; Octet RED384; hscFv (5 ug/mL) captured on HIS1K penta-His sensors; peptide in 7 three-fold dilutions, 1.03-250 nM; 1X KB (PBS pH 7.4, 0.02% Tween-20, 0.1% albumin, 0.05% sodium azide); association 240 s, dissociation 420 s; global 1:1 fit
Settings: both partners purified

Binder B3 has a Kd of 2.5 nM.
